{"source": "paper doi:10.1101/2024.05.01.592117", "about": "(2024)", "binders": {"B1": {"name": "fluorescence-labeled Pdcd4-NTD (FL-Pdcd4-NTD, residues 1-156) (domain or fragment)", "chain": "MDVENEQILNVNPADPDNLSDSLFSGDEENAGTEEIKNEINGNWISASSINEARINAKAKRRLRKNSSRDSGRGDSVSDSGSDALRSGLTVPTSPKGRLLDRRSRSGKGRGLPKKGGAGGKGVWGTPGQVYDVEEVDVKDPNYDDDQENCVYETVV", "modifications": "fluorescein-5-maleimide on the single cysteine C150"}}, "key": {"[1]": {"molecular_target": "T1, 40S small ribosomal subunit (salt-washed, purified) (human, UniProt P23396 1-243)", "experiment": "FP; 40S with eIF1 and eIF1A"}, "[2]": {"molecular_target": "T1, 40S small ribosomal subunit …", "experiment": "FP"}, "[3]": {"molecular_target": "43S preinitiation complex (40S + eIFs 1, 1A, 5, 3j, eIF2-TC and eIF3) (human, UniProt P23396 1-243; P41567 1-113; P47813 1-144; P55010 1-431; O75822 1-258; P55884 …)", "experiment": "FP"}}}
{"binder": "B1", "values": [{"measurement": "Kd", "setting": "[1]", "value": 71, "unit": "nM"}, {"measurement": "Kd", "setting": "[2]", "value": "~5", "unit": "nM"}, {"measurement": "Kd", "setting": "[3]", "value": "~3000", "unit": "nM"}]}
